The experiment addresses T1, human TACI (transmembrane activator and CAML interactor, TNFRSF13B) on Tregs, iTregs and Bregs (human) (UniProt O14836).
T1 sequence: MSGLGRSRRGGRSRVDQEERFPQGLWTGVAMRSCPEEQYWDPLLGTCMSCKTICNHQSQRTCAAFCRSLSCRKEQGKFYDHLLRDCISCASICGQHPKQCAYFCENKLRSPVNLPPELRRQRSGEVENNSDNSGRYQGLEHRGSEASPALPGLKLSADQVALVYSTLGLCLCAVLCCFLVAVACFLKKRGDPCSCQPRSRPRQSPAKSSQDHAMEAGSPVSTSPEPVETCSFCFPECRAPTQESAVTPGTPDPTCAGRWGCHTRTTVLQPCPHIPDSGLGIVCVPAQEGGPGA
The experiment can be described thus: cell-based or functional assay.

Where “and” joins values, the source holds several entries; their conditions need not be identical. Equal values may be shown once.

Consider “recombinant human APRIL (a proliferation-inducing ligand) (from UniProt O75888 105-250)”, for which the fold increase of MM cell-induced iTreg in CD4 T cells, against control media is > 1.5 fold and 1.5 to 4 fold; the percent Breg (CD19+CD24highCD38high) in B cells of MM patient BMMCs was found to be 25.2%; the percent IL-10 production in Bregs of MM patient BMMCs is 29.2%; the percent proliferative iTreg (CTV-Foxp3+) in cocultures with U266 MM cells, representative experiment was determined as 13.4%. This substance returned a percent proliferative iTreg (CTV-Foxp3+) in cocultures with U266 MM cells, three experiments of 11.3% and a percent proliferative iTreg (CTV-Foxp3+CD4+) in cocultures with U266 MM cells, additional representative experiment of 8.02%.

These data come from patent US20210113605A1.
